Columns and labels:
[1] = molecular target: human FcγRIIIa(F) (human) (UniProt P08637); experiment: SPR, captured antibody
[2] = molecular target: FcγRIIb (human) (UniProt P31994); experiment: SPR, captured antibody
[3] = molecular target: FcγRIIb (human) (UniProt P31994); experiment: SPR (Biacore)
[4] = molecular target: human FcγRIIIa(F) (human) (UniProt P08637); experiment: SPR (Biacore)
[5] = molecular target: human FcγRIIa(R) (human) (UniProt P12318); experiment: SPR (Biacore)
[6] = molecular target: human FcγRIIa(H) (human) (UniProt P12318); experiment: SPR (Biacore)
human FcγRIIa(H) (human), sequence (P12318 other isoform, or with tags, fused parts or gaps limits assumed): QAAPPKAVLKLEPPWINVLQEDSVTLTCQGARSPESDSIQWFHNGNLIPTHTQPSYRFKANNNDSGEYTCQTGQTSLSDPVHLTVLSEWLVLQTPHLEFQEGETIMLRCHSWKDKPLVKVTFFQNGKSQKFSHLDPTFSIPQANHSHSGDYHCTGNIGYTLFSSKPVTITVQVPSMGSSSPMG

FcγRIIb (human), sequence (P31994 43-217 limits assumed): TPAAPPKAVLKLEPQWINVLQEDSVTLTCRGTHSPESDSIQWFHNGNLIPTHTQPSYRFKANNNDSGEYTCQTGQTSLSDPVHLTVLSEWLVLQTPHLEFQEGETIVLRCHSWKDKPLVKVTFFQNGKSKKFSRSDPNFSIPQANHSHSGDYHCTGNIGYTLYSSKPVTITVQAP
human FcγRIIIa(F) (human), sequence (P08637 other isoform, or with tags, fused parts or gaps limits assumed): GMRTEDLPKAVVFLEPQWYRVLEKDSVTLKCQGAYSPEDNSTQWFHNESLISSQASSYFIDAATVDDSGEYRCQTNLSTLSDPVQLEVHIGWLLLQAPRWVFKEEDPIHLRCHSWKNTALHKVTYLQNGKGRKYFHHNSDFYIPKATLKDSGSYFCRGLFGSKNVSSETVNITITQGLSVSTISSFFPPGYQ
human FcγRIIa(R) (human), sequence (P12318 other isoform, or with tags, fused parts or gaps limits assumed): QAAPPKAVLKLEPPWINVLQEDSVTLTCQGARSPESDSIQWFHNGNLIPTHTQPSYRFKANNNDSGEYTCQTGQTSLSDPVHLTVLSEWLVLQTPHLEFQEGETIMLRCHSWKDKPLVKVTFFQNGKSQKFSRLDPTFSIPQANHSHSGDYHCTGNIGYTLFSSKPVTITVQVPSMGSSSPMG

| Substance | relative binding activity (% of GpH7-B3/GpL16-k0) [1] | other results |
| --- | --- | --- |
| GpH7-B3 Q295W/GpL16-k0 (antibody) | 10 |  |
| GpH7-B3 Q295Y/GpL16-k0 (antibody) | 49 |  |
| GpH7-B3 S298G/GpL16-k0 (antibody) | 59 |  |
| GpH7-B3 S298K/GpL16-k0 (antibody) | 25 |  |
| GpH7-B3 S298P/GpL16-k0 (antibody) | 0 |  |
| GpH7-B3 S298R/GpL16-k0 (antibody) | 20 |  |
| GpH7-B3 S298W/GpL16-k0 (antibody) | 11 | relative binding activity (% of GpH7-B3/GpL16-k0) [2]: 9 |
| GpH7-B3 S298Y/GpL16-k0 (antibody) | 71 |  |
| GpH7-B3 S324K/GpL16-k0 (antibody) | 74 |  |
| GpH7-B3 S324P/GpL16-k0 (antibody) | 35 |  |
| GpH7-B3 Y296G/GpL16-k0 (antibody) | 21 |  |
| GpH7-B3 Y296K/GpL16-k0 (antibody) | 21 |  |
| GpH7-B3 Y296P/GpL16-k0 (antibody) | 8 |  |
| GpH7-B3 Y296R/GpL16-k0 (antibody) | 38 |  |
| GpH7-B3 Y300K/GpL16-k0 (antibody) | 35 |  |
| GpH7-B3 Y300P/GpL16-k0 (antibody) | -1 |  |
| GpH7-B3 Y300R/GpL16-k0 (antibody) | 12 |  |
| GpH7-B3 variant E269H/GpL16-k0 (antibody) |  | relative binding activity (% of GpH7-B3/GpL16-k0) [3]: 8 |
| GpH7-B3 variant E269I/GpL16-k0 (antibody) |  | relative binding activity (% of GpH7-B3/GpL16-k0) [3]: 9 |
| GpH7-B3 variant E269W/GpL16-k0 (antibody) |  | relative binding activity (% of GpH7-B3/GpL16-k0) [4]: 9 |
| GpH7-B3 variant G236K/GpL16-k0 (antibody) |  | relative binding activity (% of GpH7-B3/GpL16-k0) [5]: 9 |
| GpH7-B3 variant G237A/GpL16-k0 (antibody) |  | relative binding activity (% of GpH7-B3/GpL16-k0) [6]: 9 |
| GpH7-B3 variant G237P/GpL16-k0 (antibody) |  | relative binding activity (% of GpH7-B3/GpL16-k0) [5]: 8 |
| GpH7-B3 variant L234G/GpL16-k0 (antibody) |  | relative binding activity (% of GpH7-B3/GpL16-k0) [5]: 9 |
| GpH7-B3 variant S239R/GpL16-k0 (antibody) |  | relative binding activity (% of GpH7-B3/GpL16-k0) [5]: 8 |
| GpH7-B3 variant S239W/GpL16-k0 (antibody) |  | relative binding activity (% of GpH7-B3/GpL16-k0) [6]: 9 |
| GpH7-B3 variant V266F/GpL16-k0 (antibody) |  | relative binding activity (% of GpH7-B3/GpL16-k0) [6]: 8 |
